Data on 61 substances can be found in US12065471B2, “B*44 restricted peptides for use in immunotherapy against cancers and related methods” (Immatics Biotechnologies GmbH, priority 2018, dated 2024).

This assay has as its target HLA-B*44:05 (Homo sapiens, UniProt P01889, A223V/A65T/A93T/A95T/D201E/D98Y/E176V/E187L/E204Q/E69K/G107R/H137Y/K202T/L105A/L119I/N104T/N87E/Q56L/Q94N/R106L/R155S/R180D/S101N/S121R/S35A/S48T/T118I/V36M/W191S/Y91S). Put plainly: MHC binding assay (UV-ligand exchange, β2m ELISA, peptide exchange yield). Particulars: binding to HLA-B*44:05. Summed up:
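Binding is read as exchange yield, i.e. stabilized complex remaining after UV cleavage of a photolabile ligand in the presence of the candidate peptide. Streptavidin-captured monomers (100-fold dilution) are probed with HRP-anti-β2m, 1h at 37° C, TMB, A450. Standard curve: HLA-A*02:01/MLA-001 monomers at 15-500 ng/ml.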
For orientation: An ELISA detects its analyte on a solid surface through an enzyme-linked reagent.
For “161 (GESSEVKAVL; listed as Homo sapiens) [compound 161]”, the “Peptide exchange (MHC class I binding score, peptide exchange yield)” value (“Peptide exchange” for short) is reported as “+++ (>50 = +++)”.

For “127 (RYFDENIQKFIW; listed as Homo sapiens) [compound 127]”, the “Peptide exchange” value is on record as “+++ (>50 = +++)”.

For “444 (SESALQTVI; listed as Homo sapiens) [compound 444]”, the “Peptide exchange” value was “+++ (>50 = +++)”.

Take “101 (SEENTGKTY; listed as Homo sapiens) [compound 101]”: the “Peptide exchange” value was “+++ (>50 = +++)”.

As for “429 (RETEDYSKQAL; listed as Homo sapiens) [compound 429]”, the “Peptide exchange” value was “++ (>20% = ++)”.

Turning to “58 (KEMDPSRQSY; listed as Homo sapiens) [compound 58]”, the “Peptide exchange” value is “+++ (>50 = +++)”.

With “285 (AEHPDFSPCSF; listed as Homo sapiens) [compound 285]”, the “Peptide exchange” value is on record as “+++ (>50 = +++)”.

For the substance “210 (AEGEPPPALAW; listed as Homo sapiens) [compound 210]”, the “Peptide exchange” value is given as “+++ (>50 = +++)”.

Regarding “224 (TETDIDREY; listed as Homo sapiens) [compound 224]”, the “Peptide exchange” value is reported as “++ (>20% = ++)”.

Consider “87 (GEARGDQVDW; listed as Homo sapiens) [compound 87]”, for which the “Peptide exchange” value is on record as “++++ (>75% = ++++)”.

Take “147 (RMLSFQQMTW; listed as Homo sapiens) [compound 147]”: the “Peptide exchange” value is “++ (>20% = ++)”.

With “10 (SEYPTKNYV; listed as Homo sapiens) [compound 10]”, the “Peptide exchange” value is recorded as “++ (>20% = ++)”.

On to “351 (EEGRVYVY; listed as Homo sapiens) [compound 351]”, for which the “Peptide exchange” value is “++ (>20% = ++)”.

On to “312 (KEWEREKAVSL; listed as Homo sapiens) [compound 312]”, for which the “Peptide exchange” value was “+++ (>50 = +++)”.

With “250 (AELDHLASL; listed as Homo sapiens) [compound 250]”, the “Peptide exchange” value is “+++ (>50 = +++)”.

With “396 (MELLFLDTF; listed as Homo sapiens) [compound 396]”, the “Peptide exchange” value is reported as “++ (>20% = ++)”.

Consider “178 (MEGAALLKIF; listed as Homo sapiens) [compound 178]”, for which the “Peptide exchange” value is “+++ (>50 = +++)”.

As to “67 (TEGAVEVKY; listed as Homo sapiens) [compound 67]”, the “Peptide exchange” value was “++ (>20% = ++)”.

“348 (SEVLLTSISTF; listed as Homo sapiens) [compound 348]”: the “Peptide exchange” value is “++++ (>75% = ++++)”.

On to “153 (IEIILLSGSL; listed as Homo sapiens) [compound 153]”, for which the “Peptide exchange” value is “++++ (>75% = ++++)”.

Regarding “119 (VEVKYEGHW; listed as Homo sapiens) [compound 119]”, the “Peptide exchange” value was “++++ (>75% = ++++)”.

Turning to “455 (QESVHVASYYW; listed as Homo sapiens) [compound 455]”, the “Peptide exchange” value is “++++ (>75% = ++++)”.

Regarding “281 (HEIPQESL; listed as Homo sapiens) [compound 281]”, the “Peptide exchange” value is given as “+ (>10% = +)”.

As for “358 (TEFHGGLHY; listed as Homo sapiens) [compound 358]”, the “Peptide exchange” value is given as “+++ (>50 = +++)”.

As to “449 (RENDFEPKF; listed as Homo sapiens) [compound 449]”, the “Peptide exchange” value was “+++ (>50 = +++)”.

For the substance “272 (SEQNIQRANLF; listed as Homo sapiens) [compound 272]”, the “Peptide exchange” value was “+++ (>50 = +++)”.

With “340 (GELAPSHGL; listed as Homo sapiens) [compound 340]”, the “Peptide exchange” value is on record as “+++ (>50 = +++)”.

On to “138 (KEAPNIVTL; listed as Homo sapiens) [compound 138]”, for which the “Peptide exchange” value is given as “++++ (>75% = ++++)”.

Consider “55 (TEFHMQFSY; listed as Homo sapiens) [compound 55]”, for which the “Peptide exchange” value was “++++ (>75% = ++++)”.

Turning to “212 (SEASVYLFRF; listed as Homo sapiens) [compound 212]”, the “Peptide exchange” value is given as “+++ (>50 = +++)”.

Turning to “204 (YERPTLVEL; listed as Homo sapiens) [compound 204]”, the “Peptide exchange” value was “+++ (>50 = +++)”.

Take “451 (REYEDGPLSL; listed as Homo sapiens) [compound 451]”: the “Peptide exchange” value is given as “+++ (>50 = +++)”.

In the case of “447 (KEFGLDSVEL; listed as Homo sapiens) [compound 447]”, the “Peptide exchange” value was “+++ (>50 = +++)”.

As to “231 (AEALVDGKWQEF; listed as Homo sapiens) [compound 231]”, the “Peptide exchange” value is given as “+++ (>50 = +++)”.

On to “223 (SEVEGLAFV; listed as Homo sapiens) [compound 223]”, for which the “Peptide exchange” value is reported as “+++ (>50 = +++)”.

As to “425 (KEVDPASNTY; listed as Homo sapiens) [compound 425]”, the “Peptide exchange” value is reported as “+++ (>50 = +++)”.

For “169 (KEHNSSVPWSS; listed as Homo sapiens) [compound 169]”, the “Peptide exchange” value is “++++ (>75% = ++++)”.

Take “216 (AGSPVMRKW; listed as Homo sapiens) [compound 216]”: the “Peptide exchange” value is listed as “++ (>20% = ++)”.

On to “446 (AENIKKFLY; listed as Homo sapiens) [compound 446]”, for which the “Peptide exchange” value is recorded as “+++ (>50 = +++)”.

As to “288 (TEHFLKKFF; listed as Homo sapiens) [compound 288]”, the “Peptide exchange” value was “+++ (>50 = +++)”.

As for “96 (MDELEEGESY; listed as Homo sapiens) [compound 96]”, the “Peptide exchange” value is “+ (>10% = +)”.

As to “307 (YEQLLKVVTW; listed as Homo sapiens) [compound 307]”, the “Peptide exchange” value was “++++ (>75% = ++++)”.

With “350 (EEMLENVSL; listed as Homo sapiens) [compound 350]”, the “Peptide exchange” value is “+++ (>50 = +++)”.

As for “254 (QEVAGYVLI; listed as Homo sapiens) [compound 254]”, the “Peptide exchange” value was “+++ (>50 = +++)”.

“192 (LEIMTNLVTL; listed as Homo sapiens) [compound 192]”: the “Peptide exchange” value is listed as “++++ (>75% = ++++)”.

With “304 (RELGFTEATGW; listed as Homo sapiens) [compound 304]”, the “Peptide exchange” value is reported as “++++ (>75% = ++++)”.

For “266 (EEEDRDGHTW; listed as Homo sapiens) [compound 266]”, the “Peptide exchange” value is recorded as “+++ (>50 = +++)”.

With “363 (EECDKAFHF; listed as Homo sapiens) [compound 363]”, the “Peptide exchange” value is reported as “+++ (>50 = +++)”.

For “364 (EECDKAYSF; listed as Homo sapiens) [compound 364]”, the “Peptide exchange” value is reported as “++ (>20% = ++)”.

As for “197 (NEILTIHF; listed as Homo sapiens) [compound 197]”, the “Peptide exchange” value is “++ (>20% = ++)”.

On to “382 (SELNPLALY; listed as Homo sapiens) [compound 382]”, for which the “Peptide exchange” value is “+++ (>50 = +++)”.

For “139 (AESDFSNNML; listed as Homo sapiens) [compound 139]”, the “Peptide exchange” value is given as “+++ (>50 = +++)”.

With “46 (SELGLPKEV; listed as Homo sapiens) [compound 46]”, the “Peptide exchange” value is given as “++ (>20% = ++)”.

Consider “334 (LEWQNSSSM; listed as Homo sapiens) [compound 334]”, for which the “Peptide exchange” value is listed as “+++ (>50 = +++)”.

Regarding “332 (SEADWLRFW; listed as Homo sapiens) [compound 332]”, the “Peptide exchange” value was “++++ (>75% = ++++)”.

“116 (AEANPRDLGASW; listed as Homo sapiens) [compound 116]”: the “Peptide exchange” value is “+++ (>50 = +++)”.

In the case of “118 (SEVPVDSHYY; listed as Homo sapiens) [compound 118]”, the “Peptide exchange” value was “+++ (>50 = +++)”.

With “453 (SESKVFQLL; listed as Homo sapiens) [compound 453]”, the “Peptide exchange” value was “+++ (>50 = +++)”.

Take “105 (EEIFKTLNY; listed as Homo sapiens) [compound 105]”: the “Peptide exchange” value is listed as “+++ (>50 = +++)”.

As for “333 (SEGTLPYSY; listed as Homo sapiens) [compound 333]”, the “Peptide exchange” value is “++ (>20% = ++)”.

Consider “179 (EEHIFSAF; listed as Homo sapiens) [compound 179]”, for which the “Peptide exchange” value is listed as “++ (>20% = ++)”.
